The values below come from the supplement of paper PMC9112550, “Optimization of the antimicrobial peptide Bac7 by deep mutational scanning” (BMC Biology, 2022).
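Note: peptides expressed intracellularly from a pBAD plasmid library in pooled LB shake-flask culture, induced with 0.3% L-arabinose, DNA abundance read by NGS, three biological replicates, DESeq2 with apeglm shrinkage.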

This series has as its system Escherichia coli TOP10. As to the kind of experiment: shrunken log2 fold change of peptide-encoding DNA abundance (4.5 h post-induction vs induction); higher = less antimicrobial activity (less host growth inhibition). The note with it: time post-induction: 4.5 h; library: site-saturation at positions 5, 18, 19, 20.
Turning to RRIRVRPPRLPRPRPRPVKTPRP, the “shrunken log2 fold change” value was -0.11.
Next, RRIRTRPPRLPRPRPRPRAVPRP: 0.617; RRIRNRPPRLPRPRPRPKYWPRP: -0.387; RRIRPRPPRLPRPRPRPYHCPRP: -0.0484.
Next, RRIRCRPPRLPRPRPRPREDPRP: 0.0389; RRIRKRPPRLPRPRPRPIIAPRP: -0.0395.
Next, RRIRPRPPRLPRPRPRPHMIPRP: -0.98; RRIRYRPPRLPRPRPRPPYVPRP: -0.266.
Turning to RRIRKRPPRLPRPRPRPIYTPRP, the “shrunken log2 fold change” value was -0.0648.
The figure for RRIRDRPPRLPRPRPRPQVNPRP is -0.182; for RRIRMRPPRLPRPRPRPVLVPRP it is 0.223.
RRIRPRPPRLPRPRPRPYAHPRP: the “shrunken log2 fold change” value was -0.0338.
Turning to RRIRQRPPRLPRPRPRPCGFPRP, the “shrunken log2 fold change” value was -0.0124.
In the case of RRIRNRPPRLPRPRPRPCWVPRP, the “shrunken log2 fold change” value is -0.0518.
The figure for RRIRARPPRLPRPRPRPRRTPRP is 0.577; for RRIRLRPPRLPRPRPRPHLNPRP it is 0.141; for RRIRWRPPRLPRPRPRPLQRPRP it is 0.189.
On to RRIRSRPPRLPRPRPRPEYVPRP, for which the “shrunken log2 fold change” value was 0.0646.
The figure for RRIRVRPPRLPRPRPRPYGEPRP is -0.204.
The figure for RRIRARPPRLPRPRPRPVTYPRP is -0.265; for RRIRVRPPRLPRPRPRPWVNPRP it is 0.0119.
Turning to RRIRTRPPRLPRPRPRPMKIPRP, the “shrunken log2 fold change” value came out at 0.0884.
As to RRIRWRPPRLPRPRPRPKPRPRP, the “shrunken log2 fold change” value came out at 0.236.
RRIRSRPPRLPRPRPRPPQHPRP: the “shrunken log2 fold change” value worked out at 0.184.
With RRIRNRPPRLPRPRPRPASMPRP, the “shrunken log2 fold change” value is -0.064.
For the sequence RRIRVRPPRLPRPRPRPTPYPRP, the “shrunken log2 fold change” value was -0.0655.
The figure for RRIRTRPPRLPRPRPRPTYYPRP is -0.359.
Take RRIRERPPRLPRPRPRPVYGPRP: the “shrunken log2 fold change” value is -0.375.
The figure for RRIRSRPPRLPRPRPRPKMMPRP is -0.214; for RRIRSRPPRLPRPRPRPVLGPRP it is 0.447; for RRIRTRPPRLPRPRPRPFWIPRP it is -0.34.
The figure for RRIRSRPPRLPRPRPRPGVMPRP is 0.161; for RRIRGRPPRLPRPRPRPNIFPRP it is 0.398; for RRIRPRPPRLPRPRPRPPEQPRP it is 0.206.
Next, RRIRQRPPRLPRPRPRPVWRPRP: 0.205; RRIRDRPPRLPRPRPRPQNLPRP: 0.0232.
With RRIRVRPPRLPRPRPRPHGIPRP, the “shrunken log2 fold change” value came to 0.00955.
RRIRERPPRLPRPRPRPGKSPRP: the “shrunken log2 fold change” value was -0.00212.
The figure for RRIRYRPPRLPRPRPRPVHIPRP is -0.526.
For the sequence RRIRQRPPRLPRPRPRPAEAPRP, the “shrunken log2 fold change” value came out at 0.61.
For the sequence RRIRPRPPRLPRPRPRPNPSPRP, the “shrunken log2 fold change” value was -0.138.
As for RRIRDRPPRLPRPRPRPIDYPRP, the “shrunken log2 fold change” value is -0.0396.
Next, RRIRPRPPRLPRPRPRPCDDPRP: 0.0508.
Next, RRIRGRPPRLPRPRPRPCSNPRP: 0.275.
Regarding RRIRVRPPRLPRPRPRPMDFPRP, the “shrunken log2 fold change” value was -0.205.
Next, RRIRRRPPRLPRPRPRPAHHPRP: 0.332.
Take RRIRIRPPRLPRPRPRPMAHPRP: the “shrunken log2 fold change” value was -0.0137.
As for RRIRPRPPRLPRPRPRPCCKPRP, the “shrunken log2 fold change” value is -0.247.
Take RRIRWRPPRLPRPRPRPELHPRP: the “shrunken log2 fold change” value amounted to 0.308.
The figure for RRIRDRPPRLPRPRPRPNDPPRP is -0.125.
As to RRIRYRPPRLPRPRPRPQSTPRP, the “shrunken log2 fold change” value is -1.2.
On to RRIRPRPPRLPRPRPRPMDMPRP, for which the “shrunken log2 fold change” value is -0.784.
Consider RRIRFRPPRLPRPRPRPMHDPRP, for which the “shrunken log2 fold change” value is -0.236.
On to RRIRRRPPRLPRPRPRPHVFPRP, for which the “shrunken log2 fold change” value was found to be 2.42.
As to RRIRVRPPRLPRPRPRPIVFPRP, the “shrunken log2 fold change” value was found to be 0.0602.
Next, RRIRMRPPRLPRPRPRPCNQPRP: -0.0399; RRIRSRPPRLPRPRPRPRIFPRP: 0.206; RRIRMRPPRLPRPRPRPNETPRP: -0.0123.
The figure for RRIRYRPPRLPRPRPRPSLAPRP is 0.0395; for RRIRYRPPRLPRPRPRPFAGPRP it is 4.12; for RRIRPRPPRLPRPRPRPQEWPRP it is 0.0248.
The figure for RRIRDRPPRLPRPRPRPSCRPRP is -0.0363; for RRIRWRPPRLPRPRPRPKWMPRP it is 0.242; for RRIRCRPPRLPRPRPRPIRNPRP it is -0.182.
Take RRIRMRPPRLPRPRPRPFYRPRP: the “shrunken log2 fold change” value is -0.0105.
RRIRARPPRLPRPRPRPIHAPRP: the “shrunken log2 fold change” value worked out at 0.0915.
Turning to RRIRSRPPRLPRPRPRPATNPRP, the “shrunken log2 fold change” value turned out to be 0.0897.
Next, RRIRNRPPRLPRPRPRPIHNPRP: -0.976; RRIRARPPRLPRPRPRPLKWPRP: 0.218; RRIRARPPRLPRPRPRPQLFPRP: 0.18.
For the sequence RRIRNRPPRLPRPRPRPWDKPRP, the “shrunken log2 fold change” value was 0.0447.
Next, RRIRKRPPRLPRPRPRPCMHPRP: -0.0309; RRIRVRPPRLPRPRPRPSHCPRP: 0.109; RRIRRRPPRLPRPRPRPMPWPRP: 0.119.
In the case of RRIRCRPPRLPRPRPRPSPRPRP, the “shrunken log2 fold change” value came to 0.485.
Next, RRIRARPPRLPRPRPRPAKDPRP: 0.316; RRIRIRPPRLPRPRPRPMWHPRP: -0.176.
The figure for RRIRSRPPRLPRPRPRPMGLPRP is 0.101; for RRIRMRPPRLPRPRPRPVEGPRP it is -0.000687; for RRIRCRPPRLPRPRPRPCQRPRP it is 0.0663.
Next, RRIRARPPRLPRPRPRPMLGPRP: 0.211; RRIRNRPPRLPRPRPRPTAWPRP: -0.0125.
For the sequence RRIRWRPPRLPRPRPRPGHRPRP, the “shrunken log2 fold change” value was determined as 0.315.
As for RRIRWRPPRLPRPRPRPPDRPRP, the “shrunken log2 fold change” value came out at 0.166.
Next, RRIRWRPPRLPRPRPRPQLCPRP: 0.078; RRIRDRPPRLPRPRPRPHIEPRP: 0.0695.
In the case of RRIRYRPPRLPRPRPRPTAVPRP, the “shrunken log2 fold change” value is -0.169.
Turning to RRIRQRPPRLPRPRPRPLFRPRP, the “shrunken log2 fold change” value was -0.227.
Next, RRIRFRPPRLPRPRPRPCYGPRP: -0.0414; RRIRDRPPRLPRPRPRPHAEPRP: 0.0887.
As for RRIRIRPPRLPRPRPRPWTQPRP, the “shrunken log2 fold change” value was 0.0826.
The figure for RRIRPRPPRLPRPRPRPECKPRP is -0.352; for RRIRWRPPRLPRPRPRPIDNPRP it is -0.406.
The figure for RRIRKRPPRLPRPRPRPHVEPRP is -0.0479; for RRIRARPPRLPRPRPRPDIDPRP it is 0.462; for RRIRLRPPRLPRPRPRPTATPRP it is 0.817.
For RRIRTRPPRLPRPRPRPPSCPRP, the “shrunken log2 fold change” value amounted to 0.35.
For the sequence RRIRSRPPRLPRPRPRPHTQPRP, the “shrunken log2 fold change” value was -0.433.
For the sequence RRIRFRPPRLPRPRPRPECRPRP, the “shrunken log2 fold change” value is -0.0408.
Consider RRIRFRPPRLPRPRPRPHDDPRP, for which the “shrunken log2 fold change” value is -0.531.
As to RRIRFRPPRLPRPRPRPFMDPRP, the “shrunken log2 fold change” value was -0.00928.
In the case of RRIRLRPPRLPRPRPRPIRIPRP, the “shrunken log2 fold change” value was -0.379.
In the case of RRIRHRPPRLPRPRPRPPDLPRP, the “shrunken log2 fold change” value amounted to 0.0765.
The figure for RRIRHRPPRLPRPRPRPCNEPRP is -0.00194.
On to RRIRERPPRLPRPRPRPDMGPRP, for which the “shrunken log2 fold change” value was -0.265.
Next, RRIRVRPPRLPRPRPRPSFRPRP: -0.42.
Next, RRIRVRPPRLPRPRPRPCRYPRP: 0.0933; RRIRGRPPRLPRPRPRPRKDPRP: 0.726.
Next, RRIRYRPPRLPRPRPRPSQPPRP: -0.0421; RRIRYRPPRLPRPRPRPIVWPRP: 0.0267.
As to RRIRGRPPRLPRPRPRPEYVPRP, the “shrunken log2 fold change” value came to 0.244.
In the case of RRIRSRPPRLPRPRPRPAMNPRP, the “shrunken log2 fold change” value was -0.66.
For RRIRNRPPRLPRPRPRPDDLPRP, the “shrunken log2 fold change” value is -0.000687.
Turning to RRIRRRPPRLPRPRPRPHGNPRP, the “shrunken log2 fold change” value worked out at 0.166.
For the sequence RRIRYRPPRLPRPRPRPSDCPRP, the “shrunken log2 fold change” value is -0.0875.
In the case of RRIRRRPPRLPRPRPRPLRHPRP, the “shrunken log2 fold change” value was 0.558.
Turning to RRIRGRPPRLPRPRPRPYKQPRP, the “shrunken log2 fold change” value amounted to 0.025.
Next, RRIRIRPPRLPRPRPRPDHLPRP: -0.846; RRIRLRPPRLPRPRPRPCFMPRP: -0.311.
The figure for RRIRKRPPRLPRPRPRPWLDPRP is 0.296.
With RRIRIRPPRLPRPRPRPSDFPRP, the “shrunken log2 fold change” value was -0.611.
Consider RRIRLRPPRLPRPRPRPEWRPRP, for which the “shrunken log2 fold change” value is -0.0482.
As to RRIRKRPPRLPRPRPRPDSYPRP, the “shrunken log2 fold change” value is -0.00206.
In the case of RRIRTRPPRLPRPRPRPKHGPRP, the “shrunken log2 fold change” value is -0.0288.
Turning to RRIRNRPPRLPRPRPRPRAQPRP, the “shrunken log2 fold change” value came to 0.188.
